From publication PMC9884143 (The Journal of Biological Chemistry, 2023)
Residue numbers refer to the chain shown, from its start.

B1: CoV2-YD-5 (VHH)
VHH: QVQLVESGGGLVQAGGSLRLSCVASGTTISTYNLLWFRQAPGQQREWVASISSGGDTSYAGSVKGRFTISRDNTENTMYLQMNSLKPEDTAVYYCHGANAAHGMDYWGKGTQVTVS
B2: CoV2-YD-11 (VHH)
VHH: QVQLVESGGGLVQAGGSLRLSCVVSGTTFSRYDMGWYRQAPGKARETVATISRSGTTNYAYFVKGRFTITRDNAKNTVYLQMNSLKPEDTAVYYCYIFGLDYWGQGTQVTVS
B3: CoV2-YD-12 (VHH)
VHH: QVQLVESGGGLVQAGGSLRLSCAASGSTFSRLNILWWRQAAGKPREWVATSTDGGTRNYAAAVKGRFTISRDNAKNTVYLQMNSLKPEDTAVYYCYTPDYWGQGTQVTVS
B4: CoV2-YD-13 (VHH)
VHH: QVQLVESGGGLVQAGGSLRLSCAASGFTFDDYAIGWFRQAPGKEREGVSCISSSGGFTNYADSVKGRFTISSDNAKNTVYLQMNSLKPEDTAVYYCAVVVNGYGLDEWAYDYWGQGTQVTVS
B5: CoV2-YD-14 (VHH)
VHH: QVQLVESGGGLVQAGGSLRLSCSASGNTFSTYSLSWYRQAPGKQREFVAAISSGGSTSYANSVKGRFSISRDNAKKTMYLQMNSLKPEDTAVYYCYVVTTLMDYWGQGTQVTVS
B6: CoV2-YD-35 (VHH)
VHH: DVQLVESGGGLVQAGDSLRLSCTASGRTFTTNAMGWFRQAPGKEREFVAAISWSYGTTYYSDPVEGRFTISRSNAKNTVYLQMNSLKPDDTAVYYCTLRSRFNAAAWTTEAAFDYWGQGTQVTVS
B7: CoV2-YD-36 (VHH)
VHH: B6 VHH with D1Q, S52T
B8: CoV2-YD-37 (VHH)
VHH: B6 VHH with S54N, G56D
B9: CoV2-YD-38 (VHH)
VHH: B6 VHH with T23A, S54N, Y55S, E65K, S73D, D89G, A105Y, A111N
B10: Rescue-1 (VHH)
VHH: DVQLVESGGGLVQAGDSLRLSCTASGRTFTTNAMGWFRQAPGKEREFVAAITWSYGTTYYSDPVEGRFTISRDNAKNTVYLQMNSLKPEDTAVYYCFYERLAWDTSTYWGQGTQVTVS
B11: Rescue-2 (VHH)
VHH: B10 VHH with T52S, S54N, G56D
B12: Rescue-3 (VHH)
VHH: B10 VHH with T52S, S54N, Y55S, E65K
B13: CoV2-YD-10 (VHH)
VHH: QVQLVESGGDLVQPGGSLRLSCAASGFTFSTYDMGWFRQGPGKEREFVAQIAPNGITTYYADSVKGRFTISRDNAKRMVFLQMNSLKPEDTAVYFCAVDLAPWGSLKLRTNPARGQGTQVTVS

What was measured:
[1] = molecular target: T1, SARS-CoV-2 Spike receptor-binding domain (RBD), original strain (SARS-CoV-2, original strain, UniProt P0DTC2)
[2] = molecular target: T1, SARS-CoV-2 Spike receptor-binding …; assay: SPR; conditions: both partners purified

| Binder | Kd [1] | binding result [2] |
| --- | --- | --- |
| B1 | 0.114 nM | – |
| B2 | 0.179 nM | – |
| B3 | 0.145 nM | – |
| B4 | 2.43 nM | – |
| B5 | 0.152 nM | – |
| B6 | 0.14 nM | – |
| B7 | 0.154 nM | – |
| B8 | 0.411 nM | – |
| B9 | 0.561 nM | – |
| B10 | 50.9 nM | – |
| B11 | 26.8 nM | – |
| B12 | 24.9 nM | – |
| B13 | – | binds |
